This data set in a line: yeast display, Sf9 membrane polyspecificity reagent, FACS + sequencing; frameworks hold sequencing errors. Summed up:
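Genes from sorted yeast were amplified by colony PCR, read by MiSeq 2 × 250 sequencing and filtered on CDR length. These cells carried a synthetic nanobody library in Saccharomyces cerevisiae BJ5465 and were sorted by FACS into low and high (top ~1%) gates on anti-HA and streptavidin fluorescence. Polyreactivity is labelled according to the gate of origin.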
Regarding “LVQHVESGGGIVQAGGSLRLTCAASGSIFASYAMGWYRLAPGKEREFVAAISRRSGSTYYSDSVKGRFTISRDYAKNTVYLQLKSLKPEDTAVYDCAGALYYGYDHYNYWGQGTQVTVSS”, the “polyreactivity (PSR sort gate)” value is “high polyreactivity”.

In the case of “QVQLVESGGGLVQAGGSLRLSCAASGFIFVTYAMGWYRQAPGKERELVAAITNSGGTTYYADSVKGRFTISRDNAKNTVYLQMNSLKPEDTAVYYCNKPYGAETAHREFDYWGQGTQLTVSS”, the “polyreactivity (PSR sort gate)” value is “low polyreactivity”. As for “QVQLVESAGGLVQAGGSLRLSCAASGRIFQFYAMGWYRQAPGKERELVATITRGGSTYYADSVKGRFTISRDNAKNTVYLQMNSLKPEDTAVYYCAAGFAGKYYWGQGTQVTVSS”, the “polyreactivity (PSR sort gate)” value is recorded as “high polyreactivity”.

“QVQLVESGGALGQAGGSLRLSCAASGFTFRIYDMGWYRHAPGKETELVAAITNGGSTDYADSVKGRFTISRDNAKNTVYLQMNSLKPEDTAVYYCAADVTYQVYDLVSVWYDYWGQGTQVTVSS”: the “polyreactivity (PSR sort gate)” value is listed as “low polyreactivity”. Regarding “QVQLVESGGGLVQAGGSLRLSCAASGITFYRNAMGWYRQAPGKEREFVAAITSSGGSTYYADSVKGRFTISRDNAKNTVYLQMNSLKPEDTAVYYCRPGRWRVSHKYDYWGQGTQVTVSS”, the “polyreactivity (PSR sort gate)” value is given as “high polyreactivity”. As to “QVQLVESGGGLVQAGGSLRLTCAASGITLYNYAMGWYRQAPGKERELVAAISLSGGRTYYADSVKGRFTISRDNAKNTVYLQMNSLKPEDTAVYYCAADWLNSDPYNYWGQGTQVTVSS”, the “polyreactivity (PSR sort gate)” value is reported as “low polyreactivity”. As to “QVQLVESGGGLDQAGGSLRLSCAASGRIFVIYAMGWYRQAPGKERELVAVINDDGSTNYADSVKGRFTISRDNAKNTVYLQMNSLKPEDTAVYYCAAESARYLTFEFDYWGQSTQVTVSS”, the “polyreactivity (PSR sort gate)” value is given as “low polyreactivity”. Regarding “QVQLVESGGGLVQAGGSLRLSCAASGSTFGSNAMGWYRQAPGKERELVAAITRRGGSTYYADSVKGRFTISRDKAKNTVYLQMNSLKPEDTAVYYCAAQIHPRRDYSAFDYWGQGTQVTVSS”, the “polyreactivity (PSR sort gate)” value was “low polyreactivity”. The entry for “QVQLLESGGGLVQAGGSLRLSCAASGSIFYWNAMGWYIQARGKERELLAAINYSGDSTYDADSVKGAFTISRDNAKNTVYLQMNSLKPEDTAVYYCNFDYWGQGTQVTVSS” is “low polyreactivity”. With “QVQLVESGGGLVQAGGILRLSCAASGRIFRYNAMGWSRQAPGKERELVAAISSSGSSTYYADSVKGRFTISRDNAKNTVYLQMNSLKPADTAVYYCNARIPSRYYYQYDYWGQGTQVTVSS”, the “polyreactivity (PSR sort gate)” value is given as “high polyreactivity”.

On to “QVQLVESGGGLVQAGGSLRLSCSASGSIFWYNAMGWYRHAPGKERELVAAISRSGSRTYYADSVKGRFTISRDYAKNTVYLQMNSLKPEDTAVYYCARVRPRVLYFVLHYDYWGQGTQVTVSS”, for which the “polyreactivity (PSR sort gate)” value is recorded as “high polyreactivity”. In the case of “QVQLVESGGGLVQAGGSLRLSCAASGSTLPNNAMGWYRQAPGKERELVAAISSSGGSTYYADSVKGRFTISRDNAKNTVYLQMNSLKPEDTAVYYCAAVYSRGTYNYWGQGTQVTVSS”, the “polyreactivity (PSR sort gate)” value was “high polyreactivity”. On to “QVQLVESGGGLVQAGGSLRLSCAASGRIFVQNAMGWYRQAPGKERELVAAISISGARTYYADSVKGRFTISRDNAKNSDYLQMNRLKPEDTAVYYCNASYRDEDDYWGQGTQVTVSS”, for which the “polyreactivity (PSR sort gate)” value is given as “high polyreactivity”. With “QVQLVESGGGLVQAGGSLRLSCAASGSIFLYYAMGWYRQAPGKERELVAGINRVGSTNYADSVKGRFTISRDNAKNTVYLQMNSLKPEDTAVYYCNKRGTRSRRRGYWGQGTQVTVSS”, the “polyreactivity (PSR sort gate)” value is “low polyreactivity”. For the sequence “QVQLVESGGGLVQAGGSLSLSCAASGRIFYRYAMGWYRQAPVKERELVAAISGSVGSTYADSVKGRFTISRDNAKNTVYLQMISLKPEDTAVYYCARETYRRYGAYDYWGQGTQVTVSS”, the “polyreactivity (PSR sort gate)” value is recorded as “low polyreactivity”. Regarding “QVQLVESGGGLVQAGGCLRLSCAASGFIFRRNALGWYSEAPGKERELVAAMGSRGTATDYADSVKGRFTISRDNAKKTVYLQMNRLNPEDTAVDYCAKSVVAWGPNFRPNHTRGYYWGQGTQATVSS”, the “polyreactivity (PSR sort gate)” value was “low polyreactivity”. As to “QVQLVESGGGLVQAGGSLRLSSSASGSIFASNAMGWYRQEPGKERELVAAINSGDSTNYADSVKGRFTISRDNAKNTVYLQMNSLKPEDTAVYYCNAEYRYYQKTPVLYTNVEYDYWGQGTQVTVSS”, the “polyreactivity (PSR sort gate)” value is given as “low polyreactivity”.

In the case of “QVQLVESGGGLVQAGGSLRLSCAASGRTLSVYAMGWYSQAPGKEMEFVAAISFSGGSTYYADSVKGRFTISRDNAKNTVYLQMNSQKPEDTAVYYCATAYPEFLSTTVGLLYLDDYWGQGTQVTVSS”, the “polyreactivity (PSR sort gate)” value was “low polyreactivity”. “QVQLVESGGGLVQAGGSLRLSCGASGRIFGINAMGWYRQAPGKERELVAAITKSGGTTYYADSVKGRFTISRDNAKNTVYLQMNTLKPEDTAVYYCAAKGSVVYQLRYDYWGQGTQVTVSS”: the “polyreactivity (PSR sort gate)” value is recorded as “high polyreactivity”. Turning to “QVQLVESGGGLVQAGGSLRLSCAASGRIFGHYAMGWYRQAPGKERELVAAISRSGTRTYYADSVKGRFTISRDNAKNTVYLQMNSLKPEDTAVYYCAAYTYKGIYYYWGQGTQVTVSS”, the “polyreactivity (PSR sort gate)” value was “high polyreactivity”. As to “QVQLVESGGGLVQAGGSLRLSCAASGRIFTHNAMGWYRQAPGKERELVAAITSGGRTTYADSVKGRFTISRDNAKNTVYLQMNSLKPEDTAVYYCNADTGLGSLDFYNRDYWGHGTQVTVSS”, the “polyreactivity (PSR sort gate)” value is recorded as “low polyreactivity”. Regarding “QVQLVESGGGLVQAGGSLRLSCAASGSIFGRNAMGSSRQAPGKERELVAAITWSGDSTYYADSVKGRFTISRDNAKNTVYLLMNSLKPEDTAVYYCAAGTATDVASIGATKDYDYWGQGTQVTVSS”, the “polyreactivity (PSR sort gate)” value is given as “low polyreactivity”. Regarding “QVQLVESGGGLVQAGGSLRLSCAASGRTFPQYAMGWYRQAPGKERELVASITSRSGRTYYADSVKGRFTISRDNAKNTVYLQMNSLKPEDTAVYYCNAVSSWWYMNYWGQGTQVTVSS”, the “polyreactivity (PSR sort gate)” value is given as “high polyreactivity”.

In the case of “QVQLVESGGGLVQAGGSLRLSCAASGRIVGRNAMGWYRQAPGKERELVAAISSGGGRTYYADSVKGRFTISRDNAKNTVYLQMNSLKPEDTAVYYCNAGWRGRFYYWGQGTQVTVSS”, the “polyreactivity (PSR sort gate)” value is “high polyreactivity”. As for “QDQLVESGGGLVQAGGSLSLICAASGFNFALYAMGWYRQAPGKERELVAAINWSGGRTYYADSVKGRFTISRDNAKNTVYLQMNSLKPEDTAVYYCNRRAFSPYAANYYYWGQGTQVTVSS”, the “polyreactivity (PSR sort gate)” value is listed as “high polyreactivity”. Turning to “QVQLVESGGGLVQAGGSLRLSCAASGSTFYYYAMGWYRQAPGKEREFVASISSRGTSTYYADSVKGRFTISRDHAKNTVYLQMNSMKPEDTAVYYCAARGWGPTRAYDYWGQGTQVTVSS”, the “polyreactivity (PSR sort gate)” value is recorded as “high polyreactivity”. Turning to “QVQLVESGGGLVQAGGSLRLSCAASGRIFLSYTMGWYRQAPGKERELVAAISRGGRTYYADSVKGRFTISRDNAKNTVYLQMNSLKPEDTAVYYCAKKYGRYGSLRGRTIDDYWGQGTQVTVSS”, the “polyreactivity (PSR sort gate)” value is on record as “low polyreactivity”. With “QVQLVESGGGLVQAGGSLRLSSAASGRIFWTNAMGWYRQAPGKERELVAGITWRGGSTYYADSVKGRFTISRDNAKNTVSLQMNSLKPEDTAVYYCASRQGWYSGFDYWGQGTQVTVSS”, the “polyreactivity (PSR sort gate)” value is “high polyreactivity”. The entry for “KVQLVESGGGLVQAGGSLRISCAASGITFNPYAMGWYRQAAGKERELVAAISRRGGSTNYADSVKGRFTISRDNAKNTVYLQMNSLKPEDTAVYDCNRDYPIGYRHDPVYYWGQGTQVTVSS” is “high polyreactivity”; for “QVQLVESGGGLVQAGGRLRLSCAASGRTFGQNAMGWYRQAPGKERELVAVISSRGGSTYYADSVKGRFTISRDNAKNTVYLQMNSLKPEDTAVYYCAKARRKPGAVDYWGQGTQVTVSS” it is “high polyreactivity”. As to “QVQLVESGGGLVQAGGSLRLSCAASGRTFIVYAMGWYRQAPGKERELVAAITTSLGRTYYADSVKGRFTISRDNAKNTVYLQMNSLKPEDTAVYYCAADRLDGYSEYYYWGQGTQVTVSS”, the “polyreactivity (PSR sort gate)” value is listed as “low polyreactivity”. Regarding “QVQLVESGGGLVQAGGSLRLSCAASGITFSKYAMGWYRQAPGKERELVAAITTSGVSTYYADSVKGRFTISRDNAKNTVYLQMNSLKPEDTAVYYCATELGWGGFYKYGHASQFDYWGQGTQVTVSS”, the “polyreactivity (PSR sort gate)” value was “low polyreactivity”. For “QVQLQESGGGLVQAGGSLRLSCAASGTISDRAGMGWYRQAPAKNAIVATIDRGTNTNYADSVKGRFTISRVNAKNTVYLQMNSLKPEDTAVYNCAADGRYYIYLDYWGQGTQVTVSS”, the “polyreactivity (PSR sort gate)” value was “low polyreactivity”.

With “QVQLVESGGGLVQAGGSLRLSCAASGRIFGVNAMGWYRQAPGKERELVAAINFSGGGTYYADSVKGRFTISRDNAKNTVYLQMTSLKPEDTAVYYCAADGPDYKWYYELDYWGQGTQVTVSS”, the “polyreactivity (PSR sort gate)” value is on record as “low polyreactivity”.

In the case of “QVQLVESGGGLVQAGGSLRLSCAASGYYAMGWYRQAPGKERELVAAITWSGGTTYYADSVKGRFTISRDNAKNTVYLQMNSLKPEDTAVYYCNADFVRYTRHKKYYYWGQGTQVTVSS”, the “polyreactivity (PSR sort gate)” value is listed as “low polyreactivity”. As for “QVQLVESGGGLVQAGGTLRLSCAASGRTFNYAMGWYRQAPGKERELVATITSGGSTNYADSVKGRFTISRDNAKNTVYLQLNSLKPEDTAVYYCNRDIPPGNYYKALYYYWGQGTQVTVSS”, the “polyreactivity (PSR sort gate)” value is reported as “low polyreactivity”. With “QVQLVESGGGLVQAGGSLRLSCAASGFTFSGYDIGWYRQAPGKERELVAGISSGGVSTTYADSVKGRFTISRDNAKNTVYLQMNSLKPEDTAVYYCNAEWTSFDWGQGTQVTVSS”, the “polyreactivity (PSR sort gate)” value is “low polyreactivity”. On to “QVQLVESGGGLVQAGGSLRLSCAASGRIFKDNAMGWYRQAPGKERELVATIDSGGDTNYADSVKGRFTISRDNAKNTVYLQMNSLKPEDTAVYYCNRDSRVLEGDYWGQGTQVTVSS”, for which the “polyreactivity (PSR sort gate)” value is recorded as “low polyreactivity”.

As to “QVQLVVSGGGLVQAGGSLRLSCAASGRTFSIYAMGWYRQAPWKERELVAAISWSGGRTYYADSVKGRFTISRDNAKNTVYLLMNSLKPEDTAVYYCNKDWIYRGYDYWGQGTQVTVSS”, the “polyreactivity (PSR sort gate)” value was “high polyreactivity”.

As to “QVQLVESGGGLVQAGGSLRLSCAASGSTLRRNAMGWSRQAPGKERELVAAITGSRGSTFYADSVKGRFTISRDNAKNTVYLQMNSLKPEDTAVYYCAVYKWSTRVSQYRYDYWGQGTQVTVSS”, the “polyreactivity (PSR sort gate)” value is “high polyreactivity”. For the sequence “QVQLVESGGGLVQAGGSLRLSCAASGRTFPRNAMGWYRQAPGKERELVAAISYGGGRTYYADSVKGRFTISRDYAKNTVYLQMNSLKPEDTAVYYCATVRRTDYPLGMDYWGHGTQVTVSS”, the “polyreactivity (PSR sort gate)” value is recorded as “high polyreactivity”.
